Variants at the floor of the assay were thinned out.
What was measured:
biotinyl-Phe-oxazolone = assay: self-aminoacylation, catalytic enhancement (BFO) (fold over background); higher = more active; k-Seq, kA / k0A0; sequences stand for … in GGGAAUGGAUCCACAUCUACGAAUUC…UUCACUGCAGACUUGACGAAGCUG
In short: (§1)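 The uncatalyzed rate is the low-activity peak of a bimodal Gaussian fit, and catalytic enhancement is median kA divided by it. The kA values came from pseudo-first-order fits, with 1000 bootstraps, of per-sequence fraction reacted measured by streptavidin capture, triplicate qPCR and Illumina sequencing. Mutagenized RNA pools with a 21-nt variable region (0.43 μM) were reacted with each biotinyl-aminoacyl-oxazolone at 2–1250 μM in 50 μL HEPES/NaCl/KCl/MgCl2/CaCl2 buffer with 5% acetonitrile, pH 6.9–7.0, for 90 minutes at room temperature.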

biotinyl-Ile-oxazolone = assay: self-aminoacylation, catalytic enhancement (BIO) (fold over background); higher = more active; k-Seq, kA / k0A0; sequences stand for … in GGGAAUGGAUCCACAUCUACGAAUUC…UUCACUGCAGACUUGACGAAGCUG
In short: as §1

biotinyl-Met-oxazolone = assay: self-aminoacylation, catalytic enhancement (BMO) (fold over background); higher = more active; k-Seq, kA / k0A0; sequences stand for … in GGGAAUGGAUCCACAUCUACGAAUUC…UUCACUGCAGACUUGACGAAGCUG
In short: as §1

biotinyl-Val-oxazolone = assay: self-aminoacylation, catalytic enhancement (BVO) (fold over background); higher = more active; k-Seq, kA / k0A0; sequences stand for … in GGGAAUGGAUCCACAUCUACGAAUUC…UUCACUGCAGACUUGACGAAGCUG
In short: as §1

biotinyl-Leu-oxazolone = assay: self-aminoacylation, catalytic enhancement (BLO) (fold over background); higher = more active; k-Seq, kA / k0A0; sequences stand for … in GGGAAUGGAUCCACAUCUACGAAUUC…UUCACUGCAGACUUGACGAAGCUG
In short: as §1

biotinyl-Trp-oxazolone = assay: self-aminoacylation, catalytic enhancement (BWO) (fold over background); higher = more active; k-Seq, kA / k0A0; sequences stand for … in GGGAAUGGAUCCACAUCUACGAAUUC…UUCACUGCAGACUUGACGAAGCUG
In short: as §1

Sequence	self-aminoacylation (biotinyl-Phe-oxazolone)	self-aminoacylation (biotinyl-Ile-oxazolone)	self-aminoacylation (biotinyl-Met-oxazolone)	self-aminoacylation (biotinyl-Val-oxazolone)	self-aminoacylation (biotinyl-Leu-oxazolone)	self-aminoacylation (biotinyl-Trp-oxazolone)
CUGCUUCAAACAAUCGGUCUU [Fam1A.1 aminoacylation ribozyme variant]	107	1.84	1.91	1.72	2.97	52
CUGCUUCAAACAAUCGGUUUG [Fam1A.1 aminoacylation ribozyme variant]	223	2.07	2.38	2.1	3.93	84.2
CUGCUUCAAACCAUCGGUCUG [Fam1A.1 aminoacylation ribozyme variant]	0.756	0.708	0.677	0.887	0.631	0.706
CUGCUUCAUACAAUCGGUCUG [Fam1A.1 aminoacylation ribozyme variant]	0.639	0.671	0.69	0.602	0.628	0.32
CUGCUUCCAACAAUCGGUCUG [Fam1A.1 aminoacylation ribozyme variant]	1.03	0.634	0.737	0.691	0.73	1.02
CUUACCCUAGUCAUCGAGUGA [Fam2.1 aminoacylation ribozyme variant]	5.25	2.99	4.55	3.24	5.38	6.07
CUUACCCUGGUCAUCGAAUGA [Fam2.1 aminoacylation ribozyme variant]	1.02	1.01	0.915	0.985	0.937	0.668
CUUACCCUGGUCAUCGAGUGU [Fam2.1 aminoacylation ribozyme variant]	102	8.72	26.4	9.84	24.6	25.6
CUUACCCUGGUCAUCGAUUGA [Fam2.1 aminoacylation ribozyme variant]	0.863	0.751	0.863	0.929	0.839	1.34
CUUACCCUGGUCAUCGUGUGA [Fam2.1 aminoacylation ribozyme variant]	11.1	1.79	2.8	2.11	2.87	2.98
CUUACCCUGGUCAUUGAGUGA [Fam2.1 aminoacylation ribozyme variant]	22.8	3.9	7.17	3.81	7.58	8.86
CUUACCCUGGUCCUCGAGUGA [Fam2.1 aminoacylation ribozyme variant]	28.8	2.44	5.36	3.36	4.96	5.89
CUUACCCUUGUCAUCGAGUGA [Fam2.1 aminoacylation ribozyme variant]	7.91	2.56	4.62	3.03	4.14	5.14
CUUCAACUAGGUCAUCGGGUG [Fam2.2 aminoacylation ribozyme variant]	31.8	3.17	5.42	3.22	6.16	4.93
CUUCACCUAAGUCAUCGGGUG [Fam2.2 aminoacylation ribozyme variant]	42.2	4.46	6.58	5.22	8.79	5.5
CUUCACCUAGCUCAUCGGGUG [Fam2.2 aminoacylation ribozyme variant]	9.04	1.76	2.21	2.37	2.43	2.82
CUUCACCUAGGUCAUCCGGUG [Fam2.2 aminoacylation ribozyme variant]	34.5	5.77	6.47	4.94	8.19	6.39
CUUCACCUAGGUCAUCGGGUA [Fam2.2 aminoacylation ribozyme variant]	23.4	4.43	6.65	5.19	7.28	5.72
CUUCACCUAGGUCAUGGGGUG [Fam2.2 aminoacylation ribozyme variant]	11.6	2.5	2.84	2.7	4.06	3.7
CUUCAUCUAGGUCAUCGGGUG [Fam2.2 aminoacylation ribozyme variant]	38.8	4.55	6.52	4.7	7.99	5.49
CUUCCCCUAGGUCAUCGGGUG [Fam2.2 aminoacylation ribozyme variant]	60.1	4.92	8.7	5.07	10.5	7.71
